Source: the MegaScale stability set (Tsuboyama et al. 2023)

B1: 2M8U (parent)
chain: TKAQVIEAFKVFDRDGNGYVTVDYLRKVLNELGDMMPADEIEEMIYEADPQNSGYVQYETFVGMLFL

Variants of: B1
Test: folding stability dG (cDNA display proteolysis); higher = more stable
Settings: PBS, room temperature

Variant	folding stability dG
K27H	3.44 kcal/mol
K27L	3.72 kcal/mol
K27V	3.62 kcal/mol
K27W	3.42 kcal/mol
K27F	3.58 kcal/mol
K27D	2.89 kcal/mol
K27P	2.04 kcal/mol
K27A	3.38 kcal/mol
P50T	3.12 kcal/mol
P50G	3 kcal/mol
P50V	2.99 kcal/mol
P50D	2.9 kcal/mol
P50C	3.11 kcal/mol
P50N	3.05 kcal/mol
P50L	3.21 kcal/mol
A48N	3.44 kcal/mol
A48C	3.84 kcal/mol
A48I	3.33 kcal/mol
A48K	2.63 kcal/mol
A48G	2.64 kcal/mol
T60V	3.31 kcal/mol
T60F	3.32 kcal/mol
T60D	3.42 kcal/mol
T60C	3.43 kcal/mol

Variant	folding stability dG
T60M	3.44 kcal/mol
T60H	3.66 kcal/mol
T60R	3.68 kcal/mol
T60Y	3.43 kcal/mol
Y46E	3.36 kcal/mol
Y46M	3.58 kcal/mol
Y46V	3.5 kcal/mol
Y46L	3.44 kcal/mol
Y46I	3.47 kcal/mol
Y46H	3.62 kcal/mol
Y46R	3.66 kcal/mol
P37Q	3.43 kcal/mol
P37Y	3.44 kcal/mol
P37K	3.7 kcal/mol
P37C	3.49 kcal/mol
P37V	3.34 kcal/mol
M35W	3.6 kcal/mol
M35F	3.9 kcal/mol
M35Y	3.33 kcal/mol
M35S	3.07 kcal/mol
M35T	3.14 kcal/mol
M35D	2.96 kcal/mol
F9D	1.85 kcal/mol
F9W	1.95 kcal/mol

Variant	folding stability dG
F9C	3.12 kcal/mol
F9Y	2.1 kcal/mol
F9A	2.63 kcal/mol
K2Y	3.24 kcal/mol
K2P	3.2 kcal/mol
K2V	3.4 kcal/mol
K2W	2.67 kcal/mol
K2C	3.6 kcal/mol
E7A	3.46 kcal/mol
E7I	3.07 kcal/mol
E7Y	2.7 kcal/mol
E7T	2.53 kcal/mol
E7C	3.41 kcal/mol
D23M	3.5 kcal/mol
D23F	4.04 kcal/mol
D23V	3.54 kcal/mol
D23N	3.45 kcal/mol
D34H	3.53 kcal/mol
D34Y	4.42 kcal/mol
D34S	3.32 kcal/mol
D34M	4.24 kcal/mol
T1I	3.61 kcal/mol
T1C	3.76 kcal/mol
T1A	3.13 kcal/mol

Variant	folding stability dG
T1D	2.96 kcal/mol
L32S	2.56 kcal/mol
L32H	2.96 kcal/mol
L32F	3.66 kcal/mol
L32K	2.5 kcal/mol
L32T	2.55 kcal/mol
L32Y	3.28 kcal/mol
Y55T	3.11 kcal/mol
Y55M	3.51 kcal/mol
Y55C	3.44 kcal/mol
Y55S	3.25 kcal/mol
Y55W	3.55 kcal/mol
D49M	2.71 kcal/mol
D49Q	2.53 kcal/mol
D49H	2.3 kcal/mol
D49S	2.93 kcal/mol
D49W	2.66 kcal/mol
A3H	3.22 kcal/mol
A3K	3.31 kcal/mol
A3Q	3.56 kcal/mol
A3L	3.21 kcal/mol
A3C	3.48 kcal/mol
A3S	3.46 kcal/mol
A3V	3.2 kcal/mol

Variant	folding stability dG
A3E	3.69 kcal/mol
L67F	3.22 kcal/mol
L67N	3.67 kcal/mol
M44Q	2.95 kcal/mol
M44C	3.6 kcal/mol
M44E	2.18 kcal/mol
M44F	3.09 kcal/mol
M44W	3.21 kcal/mol
M44S	2.96 kcal/mol
M44L	3.65 kcal/mol
V56N	1.99 kcal/mol
V56Y	2.29 kcal/mol
V56H	2.04 kcal/mol
V56A	2.7 kcal/mol
I45T	2.13 kcal/mol
I45V	3 kcal/mol
I45F	2.61 kcal/mol
A38R	3.62 kcal/mol
A38P	3.47 kcal/mol
A38F	3.53 kcal/mol
A38Q	3.69 kcal/mol
R26K	3.37 kcal/mol
R26I	3.22 kcal/mol
R26F	3.31 kcal/mol

Variant	folding stability dG
R26G	1.92 kcal/mol
V22P	2.22 kcal/mol
V22D	1.76 kcal/mol
V22T	3.19 kcal/mol
V22G	2.36 kcal/mol
V22A	2.95 kcal/mol
G54D	2.06 kcal/mol
G54L	2.48 kcal/mol
G54H	2.49 kcal/mol
G54A	2.36 kcal/mol
G54F	2.89 kcal/mol
D39L	3.89 kcal/mol
D39I	3.83 kcal/mol
D39V	4.01 kcal/mol
D39W	3.65 kcal/mol
D39Q	3.59 kcal/mol
D39G	3.77 kcal/mol
D39K	3.79 kcal/mol
V20S	2.45 kcal/mol
V20L	2.9 kcal/mol
V20K	1.46 kcal/mol
V20A	2.73 kcal/mol
V20E	2.16 kcal/mol
V20I	3.62 kcal/mol

Variant	folding stability dG
M36N	3.34 kcal/mol
M36H	3.99 kcal/mol
M36Y	3.57 kcal/mol
M36P	3.63 kcal/mol
V5A	2.77 kcal/mol
V5S	2.1 kcal/mol
V5R	1.91 kcal/mol
V5F	3.59 kcal/mol
V5M	3.85 kcal/mol
V5E	1.95 kcal/mol
V5N	2.04 kcal/mol
V5T	2.49 kcal/mol
V5L	3.95 kcal/mol
D15V	2.94 kcal/mol
D15F	2.79 kcal/mol
D15K	2.32 kcal/mol
D15M	3.03 kcal/mol
D15H	2.69 kcal/mol
Q51G	3.43 kcal/mol
Q51V	3.34 kcal/mol
Q51A	3.47 kcal/mol
Q51C	3.71 kcal/mol
Q51L	3.53 kcal/mol
S53Y	3.2 kcal/mol

Variant	folding stability dG
S53Q	3.28 kcal/mol
S53V	3.15 kcal/mol
N30W	3.71 kcal/mol
N30D	3.72 kcal/mol
N30V	3.38 kcal/mol
N30Y	3.57 kcal/mol
N30A	3.62 kcal/mol
N30L	3.64 kcal/mol
R14I	3.77 kcal/mol
R14F	4.03 kcal/mol
F12T	2.39 kcal/mol
F12Q	3.12 kcal/mol
F12A	3.36 kcal/mol
E40Q	3.64 kcal/mol
E40P	3.22 kcal/mol
E40A	3.65 kcal/mol
E42A	3.26 kcal/mol
E42Q	3.37 kcal/mol
E42K	3.22 kcal/mol
E42G	3.04 kcal/mol
E42W	3.1 kcal/mol
E42C	3.11 kcal/mol
G63D	4.19 kcal/mol
G63S	3.63 kcal/mol

Variant	folding stability dG
G63H	3.72 kcal/mol
G63A	3.66 kcal/mol
G63I	3.41 kcal/mol
Y19C	2.74 kcal/mol
Y19W	3.21 kcal/mol
Y19G	1.95 kcal/mol
Y19V	3.05 kcal/mol
M64L	3.74 kcal/mol
M64P	2.66 kcal/mol
M64N	3.83 kcal/mol
M64F	3.34 kcal/mol
M64E	3.29 kcal/mol
M64Q	3.53 kcal/mol
N52I	3.03 kcal/mol
N52S	3.57 kcal/mol
N52R	3.57 kcal/mol
N52A	3.38 kcal/mol
N52D	3.37 kcal/mol
N52P	2.43 kcal/mol
N52W	3.1 kcal/mol
Q57E	3.56 kcal/mol
Q57Y	3.51 kcal/mol
Q57T	2.41 kcal/mol
Y24N	4.5 kcal/mol

Variant	folding stability dG
Y24A	4.19 kcal/mol
Y24K	3.82 kcal/mol
Y24I	4.54 kcal/mol
G18T	2.38 kcal/mol
G18E	2.38 kcal/mol
G18A	2.63 kcal/mol
E47L	3.88 kcal/mol
E47P	2.33 kcal/mol
E47M	3.87 kcal/mol
E47Y	3.51 kcal/mol
E47K	4.09 kcal/mol
V62H	1.7 kcal/mol
V62T	3 kcal/mol
V62N	1.68 kcal/mol
G16C	2.92 kcal/mol
G16A	2.96 kcal/mol
G16M	3.04 kcal/mol
G16D	3.28 kcal/mol
G16K	3.04 kcal/mol
G16E	2.93 kcal/mol
G16N	3.36 kcal/mol
E31P	2.78 kcal/mol
E31H	3.45 kcal/mol
E31F	3.53 kcal/mol

Variant	folding stability dG
G33M	4.14 kcal/mol
G33S	3.28 kcal/mol
G33C	3.87 kcal/mol
G33E	3.48 kcal/mol
G33K	3.46 kcal/mol
G33H	3.25 kcal/mol
G33R	3.51 kcal/mol
L25T	2.65 kcal/mol
L25Y	1.83 kcal/mol
L25S	1.72 kcal/mol
N17S	4.02 kcal/mol
N17M	3.15 kcal/mol
N17K	3.01 kcal/mol
N17D	3.44 kcal/mol
N17H	3.03 kcal/mol
A8N	2.81 kcal/mol
A8Y	3.17 kcal/mol
A8E	2.59 kcal/mol
A8T	2.67 kcal/mol
A8H	3.02 kcal/mol
I41Q	2.78 kcal/mol
I41A	2.86 kcal/mol
I41W	3.72 kcal/mol
I41R	3.03 kcal/mol

Variant	folding stability dG
I41G	2.29 kcal/mol
I41L	3.83 kcal/mol
I41S	2.59 kcal/mol
E43P	3.54 kcal/mol
E43G	3.58 kcal/mol
E43Y	3.69 kcal/mol
E43R	4.37 kcal/mol
E43V	3.78 kcal/mol
E43I	3.87 kcal/mol
E43S	3.74 kcal/mol
L65C	2.6 kcal/mol
L65W	3.25 kcal/mol
L65E	1.82 kcal/mol
L65R	2.22 kcal/mol
L65H	2.65 kcal/mol
L65S	1.7 kcal/mol
E59V	3.68 kcal/mol
E59N	2.91 kcal/mol
Q4A	3.53 kcal/mol
Q4G	2.99 kcal/mol
Y58T	2.02 kcal/mol
Y58S	2.04 kcal/mol
Y58V	2.67 kcal/mol
Y58I	3.25 kcal/mol

Variant	folding stability dG
Y58H	1.99 kcal/mol
Y58L	2.51 kcal/mol
V28C	2.6 kcal/mol
V28Y	2.78 kcal/mol
V28R	2.41 kcal/mol
K10Y	2.79 kcal/mol
K10I	3.32 kcal/mol
K10R	3.46 kcal/mol
K10T	2.77 kcal/mol
F61C	2.13 kcal/mol
F61I	3.6 kcal/mol
F61R	1.29 kcal/mol
F61Y	2.17 kcal/mol
F61Q	1.17 kcal/mol
D13S	1.57 kcal/mol
D13F	2.65 kcal/mol
D13Y	2.29 kcal/mol
D13N	1.76 kcal/mol
D13T	2.06 kcal/mol
T21C	3.42 kcal/mol
T21Y	3.38 kcal/mol
T21D	3.16 kcal/mol
T21N	3.24 kcal/mol
F66M	2.88 kcal/mol

Variant	folding stability dG
F66C	2.86 kcal/mol
F66Y	2.71 kcal/mol
L29I	3.53 kcal/mol
L29C	3.16 kcal/mol
L29T	2.46 kcal/mol
L29V	3.28 kcal/mol
I6V	2.86 kcal/mol
I6W	2.18 kcal/mol
I6Q	2.31 kcal/mol
I6H	2.76 kcal/mol
I6M	3.42 kcal/mol
I6A	2.25 kcal/mol
I6R	2.46 kcal/mol
I6E	2.81 kcal/mol
I6C	3.4 kcal/mol
I6P	1.65 kcal/mol
I6Y	2.56 kcal/mol
V11D	3.13 kcal/mol
V11Q	3.65 kcal/mol
V11C	3.39 kcal/mol
V11R	3.63 kcal/mol
V11W	3.05 kcal/mol
